{"source": "paper PMC8442604", "about": "(Frontiers in Immunology, 2021)", "key": {"[1]": {"molecular_target": "T1, SARS-CoV-2 RBD protein (321–591) (SARS-CoV-2, Wuhan-Hu-1 (MN908947), UniProt P0DTC2)", "assay": "cell-based or functional assay"}, "[2]": {"molecular_target": "T1, SARS-CoV-2 RBD protein (321–591)", "assay": "SPR", "conditions": "both partners purified"}}, "data": [{"binder": "S309H-XG81L (antibody, V domains shown, also called rAb S309H-XG81L) VH: not shown VL: DIQMTQSPSSLSASVGDRVTITCRASQSISSSLNWYQQKPGKAPKLLIYAASNLQSGVPSRFSGSGSGTDFTLTISSLQPEDFATYYCQQSFSTLFTFGPGTKVDLK", "values": [{"measurement": "IC50 of neutralisation of authentic SARS-CoV-2 on Vero E6 cells (CPE assay)", "setting": "[1]", "result": 1.25, "unit": "µg/mL"}, {"measurement": "Kd", "setting": "[2]", "result": 21.1, "unit": "nM"}]}]}
